# Measured values: the supplement of paper PMC9170038
# System: MS2 coat protein
# Assay: apparent KD of MS2 coat protein; higher = weaker reporter binding
# Conditions: Eterna round: R107
# Method in brief: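 In 100 mM Tris-HCl pH 7.5 with 80 mM KCl and 4 mM MgCl2, and without or with constant ligand, SNAP-549-labelled MS2 coat protein was titrated in twofold steps from 0.7 or 1.5 nM to 3 µM. Per-step times went from 0.8–1.5 h down to 10–20 min. The RNA switches were transcribed on-chip from Illumina sequencing clusters, and apparent KD is the per-design median of normalised cluster binding-curve fits.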
# [1] = input ligand: theophylline 20 uM
# [2] = input ligand: tryptophan 2.4 mM
# [3] = input ligand: theophylline 2 mM
Sequence,apparent KD of MS2 coat protein (input ligand: arginine 13.2 mM),apparent KD of MS2 coat protein [1],apparent KD of MS2 coat protein [2],apparent KD of MS2 coat protein (input ligand: none),apparent KD of MS2 coat protein [3]
AAACAUUGCUCAGAUACCAGACAUGAGGAUCACCCAUGUACCGAGGUACCCGAAAGGAAUGUCCCUUGGCAGCUGAGCAAUGAAA [MAT - Exclusion Theophlline B - Mod of Eli - D22],14.2 nM,15.3 nM,11.4 nM,–,–
UACUUACAUGAGGAUCACCCAUGUGGCGAAGGAGCGGCAUGAGGGCCAGGUAGGUCGCGCCAACAUACAUACAUGAGGAUCUCCC [Same State Arginine A 4],46.3 nM,127 nM,93.1 nM,78.9 nM,118 nM
GUAGCUAUCGCGGCCGCCACUAAACCGGAAACGGAACAGGAGGAUCACCCUUGUGGCGAAAGCCAUAGGACCGGGCGAUAGCUAC [TryBS - Double Magnet system],224 nM,457 nM,46.3 nM,–,735 nM
UGUAUGUGAACUGAUACCAGACCUCAAUCUUGAGGAUCACCCAAGGAGGACGAAAGUCCGGUCCCUUGGCAGCAGUUCACAUACU [ThBS - Unstable 2],162 nM,737 nM,1390 nM,664 nM,40.5 nM
UUCGUUUGCGGAAGGAGCGACGGACAUCGGUGAACGACGCACAUGAGGAUCACCCAUGUACGUCAGGUAGGUCGCCGCUAAGAGU [Tibira],15.5 nM,22.3 nM,19.8 nM,18 nM,25.2 nM
AAACAGUCGGACAUGAGGAUCACCCAUGUGCGAGGACCGGUACGGCCGCCACUCGACAAGGGCGGUCCCGAAGCAAACAUACGCG [Enedquceor],12.2 nM,33.7 nM,25.4 nM,16.5 nM,21.3 nM
GAGCUGAUGUAGAGAAUAAAUAUAAGAGAUACCAGUACAGAAAUGUACCCUUGGCAGCUCAACUUUACAUGAGGAUCACCCAUGU [Ex Theophylline A 18],14.1 nM,16.7 nM,13.9 nM,–,–
CCGUCCCUCGGAAGGAGCGGCGCAAUGUAAGGGACCUUUUAUACAUGAGGAUCACCCAUGUGCCAGGUAGGUCGCCGAGAGCGUG [Erxeatge],79.5 nM,74 nM,140 nM,77.2 nM,145 nM
GUUAUAUACUCGGCCGCCACUGAGAGAGUCAUGUAAACAUGAGGAUCACCCAUGUAAUAUAUAUACAGGACCGGGAGUAUAGUAA [4.D],19.8 nM,22 nM,–,–,19.6 nM
AUAAGUGUAAGAUACCGCACGCUGGAGGAAGGAGCGCGGAUUAACGCAGGUAGGUCGCCUCGUACAUGAGGAUCACCCAUGUGGC [#14 Same State - Arginine A],41.7 nM,41.5 nM,35.2 nM,22.5 nM,38.7 nM
AAUAACAUGAGGAUCACCCAUGUAAAAGAUACCAGGGUGAUGAUCCUCCCUUGGCAGCUUACAGCUGAUCAAUAAGAUCGGCUGA [TheoAS #Tail #MS2BeforeAptamer #BothOrNeither],87.5 nM,256 nM,184 nM,–,–
UGUAUGUGAUCUGAUACCAGCUAAUAAGCUUGAGGAUCACCCAAGUGGAGCGGAAACGCAAGCCCUUGGCAGCAGAUCGCAUACU [Denovo 4 #StaticStem #AlternativeMS2],60.9 nM,50.6 nM,98.9 nM,89.3 nM,12.7 nM
UUAAAUGUGACGGAUACCAGCGUGUUGUAGAACAUGAGGAUCACCCAUGUAGUGAUCAAGCGCCCUUGGCAGCUGGUAUGUUUGA [7.Z],227 nM,224 nM,124 nM,–,–
UGUCGGCGUAAGUUGGCAUGUCUUGCUGGUCGAGGACCGGUACGGCCGCCACUCGAUCCUUCGCACAUGAGGAUCACCCAUGUUG [SS Tryp A #25],20.3 nM,29.3 nM,–,–,20.4 nM
AAUAAACAUGAGGAUCACCCAUGUAUGGAAGGAGCGGUAAAUAAACCAGGUAGGUCGCCAGUGUGAGGGUCAUCUAUGUAAUAAA [Exclusion - Arginine A (Freestyle 1)],40.8 nM,53.6 nM,33.4 nM,32 nM,74.9 nM
UUCAGCUAGUCGGCCGCCACUACUUGAGGAUCACCCAGGUAGGUCCACACUGCUUCGGCAGUGAGUAGGACCGGGACUAGCUGAG,31 nM,32.2 nM,272 nM,32.8 nM,39.4 nM
ACAUGAGGAUCACCCAUGUUCCUCAUUGAUACCAGUGAAUUUAGACGCCCUUGGCAGCGAGUUUUUUUAUAAGUUUUUUUUUUUU [6.J],276 nM,913 nM,874 nM,–,–
AUCCCGUGAGCGGCCGCCACUGGAGGCUUUGCGCGACAUGAGGAUCACCCAUGUGUGCCCGGCGUUAGGACCGGGUUCGCGUGGA [#1 Same State - Tryptophan B Attempt #17 (HarryS)],29.3 nM,71.3 nM,34 nM,25.6 nM,65.1 nM
GGUUGGUGUAGAGAUAUAUUGAUUACUGAAGGAGCGGGAAUAAACCCAGGUAGGUCGCAGAGAUCCACAUGAGGAUCACCCAUGU [!0.O],32 nM,54.6 nM,35.3 nM,36.9 nM,53 nM

Sequence,apparent KD of MS2 coat protein (input ligand: arginine 13.2 mM),apparent KD of MS2 coat protein [1],apparent KD of MS2 coat protein [2],apparent KD of MS2 coat protein (input ligand: none),apparent KD of MS2 coat protein [3]
UGUAUGGACUGAAGGAGCGGGAAAUAAACCUGAGGAUCACCCAGGUAAUAGGCGAAAGCCACCCAGGUAGGUCGCAGUCCAUACU,10.7 nM,14.3 nM,10.6 nM,9.91 nM,12 nM
ACAUGUUGGUGGUACCAACGAAGGCGGAAACGAGGACCGGUACGGCCGCCACUCGGCGACAUGAGGAUCACCCAUGUGGUUAAAA [Exclusion - Tryptophan A (Freestyle 3)],–,134 nM,70 nM,398 nM,95.7 nM
GUCAGUUCUCAUGAUACCAGACCUGCCUCGGACAUGAGGAUCACCCAUGUACCCAAGCGAGUCCCUUGGCAGCAUGUGGCUUAAA [Ririatre],24.7 nM,19.4 nM,20.7 nM,–,–
AGCACAUGAGGAUCACCCAUGUGAGGUGAUACCAGUGAGAAGAAGCACCCUUGGCAGCACUUGGGUACAUGAGGAUCACCCAUGU [Exclusion Theophylline A GF9],47.4 nM,77.8 nM,54.7 nM,–,–
CGGUCGGUCGGUCGGUGAGUAUGGGAUGAAGGAGCGUGGGAAGCUACAGGUAGGUCGCAUCCGGGACAUGAGGAUCACCCAUGUU [#19 Same State - Arginine A],19.8 nM,43.3 nM,25.1 nM,27.7 nM,41.7 nM
GAUAGUUGAUGGGAUACCAGCGUGCACAUGAGGAUCACCCAUGUGGUUCGUGUACGACGGCGCCCUUGGCAGCCCAUAUUGUGUA [#13 Same State - Theophylline B],58.2 nM,116 nM,181 nM,–,–
ACAUGAGGAUCACCCAUGUUGCUGACAGAAGGAGCGUGAUUAAGCACAGGUAGGUCGCUGUUGGUAUCGAGCGUUAGCUCGAUAC [SSArg A #8],34.6 nM,41.7 nM,50 nM,32 nM,33.7 nM
AUUAAUAAUAUGUAGACGGCGGAGACGAGACGAGGACCGGUACGGCCGCCACUCGUGUUAGUUAACAUGAGGAUCACCCAUGUUA [#10 Tryptophan A Same State],11.2 nM,17.5 nM,–,–,13.9 nM
AGUCUGGACUCGGCCGCCACUCGUGAUGCUUUGGCACAUGAGGAUCACCCAUGUGGUCGGCCUUAGAGGACCGGGAGUACCAGUC [Ariaredle],52.3 nM,84.9 nM,–,–,63.5 nM
AGUUGACGAAAGUCAGCAACAUGAUCCGAAGGAGCGGGCGAAAGCCCAGGUAGGUCGCGGACAUGAGGAUCACCCAUGUCUCCUU [MAT - Exclusion Arginine A - Mod of Eli - D12],37.8 nM,78.8 nM,70.7 nM,73.4 nM,92.6 nM
GUUAGUUACACGGCCGCCACUCUUUGGCUUGGCUCAAGCUCCCAACAUGAGGAUCACCCAUGUCAGAGGACCGGGUGAACAACGU [theeternabot_sameState_MS2_Trp_B_28],56.1 nM,180 nM,–,–,205 nM
AAUUAAAACUGAAGGAGCGUCGUGCGUGGGUGCGUCCCACAUGAGGAUCACCCAUGUGGUUGACAGGUAGGUCGCAGAAUAAUUU [Exclusion - Arginine B],66.9 nM,95.5 nM,36.6 nM,49.7 nM,155 nM
AGAGCAUUGACGGCCGCCACUCAUGUCACAUGAGGAUCACCCAUGUGAUGGGUAAUCGCCCGGUUGAGGACCGGGUCAAUGCUCA [Omei Tryp SS B v3],6.69 nM,16.9 nM,10.7 nM,6.99 nM,8.46 nM
GCAGACAUGAGGAUCACCCAUGUACUUGGGCGAGGACCGGUACGGCCGCCACUCGUAGACUUGACGAGGAAAUGUUCUCGCAGGG [theeternabot_sameState_MS2_Trp_A_24],22.1 nM,31.6 nM,–,–,28.4 nM
GGCCGAUGGUGCGAUACCAGCUUGAGUGUACUGGCCAGGUACAUGAGGAUCACCCAUGUAAGCCCUUGGCAGCGCGUCAGAGGCC [#1 Exclusion - Theophylline B Attempt #21 (HarryS)],–,15.5 nM,11.3 nM,–,–
GCCGCGGCCGCGAUACACAUGGGUGUGUAACGAGGACCGGUACGGCCGCCACUCGAGAUGAUGUACAUGAGGAUCACCCAUGUAC [Exclusion Tryp A GF13],11.8 nM,15.4 nM,13.9 nM,11.6 nM,11.9 nM
UCGCUCUGGGUGGGAUCCGGAGAUGUGGAAGGAGCGCUGGUAACAGCAGGUAGGUCGCCAACGGACAUGAGGAUCACCCAUGUAC [Same State - Arginine A (Freestyle 17)],25.2 nM,40 nM,26.7 nM,37.3 nM,44.2 nM
UAGCGAUUUGGUGAUACCAGACGUGUGCAGUCCUCAGACAUGAGGAUCACCCAUGUAUGCGUCCCUUGGCAGCGCUAUGAGGACA [Theo B Ex t6],66.5 nM,105 nM,44.3 nM,48.4 nM,201 nM
CCUCAAUAGACGGCCGCCACUGAGACAUGAGGAUACAUGAGGAUCACCCAUGUGGGUGUGUCACGCAGGACCGGGUCAAGACCCG [Tryp B SS t2],183 nM,497 nM,–,–,794 nM
